Test results from paper PMC7595633 (PLoS Neglected Tropical Diseases, 2020).
Several values for one entry are separate records, joined by “and”; a condition that tells them apart may be missing. Identical values can stand only once.

T1: Trypanosoma brucei selenocysteine lyase (TbSCLY), recombinant (Trypanosoma brucei, UniProt Q38DC4 1-451, pyridoxal-phosphate (PLP) bound to the active site)
T1 chain: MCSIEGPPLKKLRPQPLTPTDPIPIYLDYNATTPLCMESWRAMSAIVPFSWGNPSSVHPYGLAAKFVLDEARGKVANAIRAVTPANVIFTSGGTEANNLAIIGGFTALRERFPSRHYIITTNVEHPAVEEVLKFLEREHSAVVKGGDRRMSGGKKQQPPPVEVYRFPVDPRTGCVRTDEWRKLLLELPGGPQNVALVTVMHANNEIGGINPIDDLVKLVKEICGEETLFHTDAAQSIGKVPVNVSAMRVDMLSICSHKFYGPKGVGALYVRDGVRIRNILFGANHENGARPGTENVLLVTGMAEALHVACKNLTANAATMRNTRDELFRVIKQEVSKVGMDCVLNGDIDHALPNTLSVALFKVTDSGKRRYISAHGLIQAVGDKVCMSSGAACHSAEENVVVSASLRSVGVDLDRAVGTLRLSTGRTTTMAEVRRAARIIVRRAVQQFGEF

B1: Leishmania major selenophosphate synthetase (LmSEPHS2), recombinant full-length (enzyme, UniProt Q4Q0M0 1-398, looked up)
chain: MSHKRPQSSAGESNGAVDLKTPRFDPVSLGLPAEFQLTDYTRLKGCSCKLPQPKLLALLQELSATPGQKDVGMDCSIVPLHHTNSKGEALFLVSTTDFFFPSVSDPFLQGQIGAANVLSDLYSMGIPDCDTMLMLLAASTEMDEHERLITTREIMKGFAERARLATTTVTGGQTVMNPWPLIGGVAMAVVSEAEMVRPTGLLCAGDILVLTKPLGCQVAVNLKQWLLRPSPLYEEAIAGHISPEEIEELYNMATDSMRRLNREGARLMRKHGAHGATDVTGFGILGHANNFGAAQAVGDAPRSLCLVLERLPMFKTAVAASKQMNDKYRLLEGYSAETSGGLLVAFPSTTAAAAFCAELTAVDGGCPSWIVGHVEDRATNAVDGVYARLKDGYEIVEV
notes: selenophosphate synthetase SEPHS2 of Leishmania major, LmjF.36.5410; also called LmSEPSH2
B2: ΔN(69)-LmSEPHS2, N-terminally truncated L. major selenophosphate synthetase (domain or fragment, Leishmania major, UniProt Q4Q0M0 70-398, looked up)
chain: DVGMDCSIVPLHHTNSKGEALFLVSTTDFFFPSVSDPFLQGQIGAANVLSDLYSMGIPDCDTMLMLLAASTEMDEHERLITTREIMKGFAERARLATTTVTGGQTVMNPWPLIGGVAMAVVSEAEMVRPTGLLCAGDILVLTKPLGCQVAVNLKQWLLRPSPLYEEAIAGHISPEEIEELYNMATDSMRRLNREGARLMRKHGAHGATDVTGFGILGHANNFGAAQAVGDAPRSLCLVLERLPMFKTAVAASKQMNDKYRLLEGYSAETSGGLLVAFPSTTAAAAFCAELTAVDGGCPSWIVGHVEDRATNAVDGVYARLKDGYEIVEV
notes: selenophosphate synthetase SEPHS2 of Leishmania major, LmjF.36.5410, lacking the 69-residue N-terminal region; also called ΔN-LmSEPHS2
B3: ΔN(25)-TbSEPHS2, amino acid residues 26-393 (domain or fragment, Trypanosoma brucei, UniProt Q38A34 26-393, looked up)
chain: GLPEEFTLTDYTRLKGCSCKVPQPELLALLQSVSTTPGRRDVGMDCSIVKLQHKDETGKPLYMVSTTDFFFPSVEDPYLQGQIGAANVLSDLYSTGIDRCDTVLMLLAASTDMDKTEREVCTQEMMKGFVDHVRLAGSDVTGGQTVMNPWPLIGGIATSVVAESQMIRPTGLQPGDILVLTKPLGCQIAVNLKQWLRRPSPIFEEQIQGKMDSEEIEELYNAAADGMKRLNRMAAALMHSHGAHGATDVTGFGILGHAKNLGSAQKADVCLVLDSLPMYRGAVKASKLMGDKYRLFEGYAAETSGGLLVAFGTREEAEGYIRELYETDGEPAWVVGRVVRREGSAPYALLQKDYKIIEVGAKVNDKII
notes: selenophosphate synthetase SEPHS2 of Trypanosoma brucei, Tb927.10.9410, residues 26-393; Cloned into pET20b with the printed oligonucleotides
B4: Trypanosoma brucei selenophosphate synthetase (TbSEPHS2), recombinant full-length (enzyme, UniProt Q38A34 1-393, looked up)
chain: MSEKEGKVIPETNGMKRPRFDPVKLGLPEEFTLTDYTRLKGCSCKVPQPELLALLQSVSTTPGRRDVGMDCSIVKLQHKDETGKPLYMVSTTDFFFPSVEDPYLQGQIGAANVLSDLYSTGIDRCDTVLMLLAASTDMDKTEREVCTQEMMKGFVDHVRLAGSDVTGGQTVMNPWPLIGGIATSVVAESQMIRPTGLQPGDILVLTKPLGCQIAVNLKQWLRRPSPIFEEQIQGKMDSEEIEELYNAAADGMKRLNRMAAALMHSHGAHGATDVTGFGILGHAKNLGSAQKADVCLVLDSLPMYRGAVKASKLMGDKYRLFEGYAAETSGGLLVAFGTREEAEGYIRELYETDGEPAWVVGRVVRREGSAPYALLQKDYKIIEVGAKVNDKII
notes: selenophosphate synthetase SEPHS2 of Trypanosoma brucei, Tb927.10.9410, 393 residues (from the limits of the truncated constructs); also called SPS2; TbSPSH2
B5: ΔN(70)-TbSEPHS2, residues 71-393 (domain or fragment, Trypanosoma brucei, UniProt Q38A34 71-393, looked up)
chain: CSIVKLQHKDETGKPLYMVSTTDFFFPSVEDPYLQGQIGAANVLSDLYSTGIDRCDTVLMLLAASTDMDKTEREVCTQEMMKGFVDHVRLAGSDVTGGQTVMNPWPLIGGIATSVVAESQMIRPTGLQPGDILVLTKPLGCQIAVNLKQWLRRPSPIFEEQIQGKMDSEEIEELYNAAADGMKRLNRMAAALMHSHGAHGATDVTGFGILGHAKNLGSAQKADVCLVLDSLPMYRGAVKASKLMGDKYRLFEGYAAETSGGLLVAFGTREEAEGYIRELYETDGEPAWVVGRVVRREGSAPYALLQKDYKIIEVGAKVNDKII
notes: selenophosphate synthetase SEPHS2 of Trypanosoma brucei, Tb927.10.9410, residues 71-393; Cloned into pET20b with the printed oligonucleotides; also called ΔN(70)-SEPHS2

Legend:
[1] = biological target: the molecule itself; assay: AUC; sedimentation equilibrium; tetramer to dimers; 0.5, 0.75 and 1.0 mg/mL; 8,000, 10,000 and 12,000 rpm, 4°C; global fit in SEDPHAT
[2] = biological target: the molecule itself; assay: native gel or EMSA; PhastGel gradient 8-25%, room temperature; 1 mg/mL (methods), 2 mg/mL (legend of Fig 1D); Coomassie stained
[3] = biological target: T1, Trypanosoma brucei selenocysteine lyase …; assay: ITC

Binder | Kd [1] [µM] | stoichiometry N [2] | Kd [3] [µM]
B1 | 178 ± 10 | 2 and 4 | –
B2 | – | 2 and 4 | –
B3 | – | 2 and 4 | –
B4 | – | – | 5.2
B5 | – | 2 and 4 | –
